Data: patent publication US20130302399A1 (ALDERBIO, published 2013)
Positions count from the first letter of the chain named.

B1: Ab21 (antibody, human IgG1, kappa, N297A, V domains shown)
VH: QSVEESGGRLVTPGTPLTLTCTVSGFSLSSYAMNWVRQAPGKGLEWIGAIRSSGATFFASWVNGRFTISKTSTTVDLKITSPTPEDTATYFCARDTNDGWYINRLDLWGPGTLVTVSS
VL: AAVLTQTPSPVSAAVGGTVSISCQSSKSVYSNYLSWFQQKPGQPPKFLIYKASTLASGVPSRFKGSGSGTQFTLTISDVQCDDAATYYCAGGDTNISDNAFGGGTEVVVKR
notes: also called antibody Ab21
B2: Ab22 (antibody, human IgG1, kappa, N297A, V domains shown)
VH: EVQLVESGGGLVQPGGSLRLSCAASGFSLSSYAMNWVRQAPGKGLEWIGAIRSSGATFFASSVNGRFTISRDNSKNTVYLQMNSLRAEDTAVYYCARDTNDGWYINRLDLWGQGTLVTVSS
VL: AVLTQSPSTLSASVGDRVTITCQSSKSVYSNYLSWFQQKPGKAPKFLIYKASTLASGVPSRFSGSGSGTEFTLTISSLQPDDFATYYCAGGDTNIADNAFGGGTKVEIKR
notes: also called antibody Ab22
B3: Ab23 (antibody, human IgG1, kappa, N297A, V domains shown)
VH: QSLEESGGDLVKPGASLTLTCKASGFSFSSGYYMCWVRQAPGKGLEWIACIYAGSGGSTFFANWAKGRFTISKTSSTTVTLQMTSLTAADTATYFCARDGGYAGYGYAFFNLWGPGTLVTVSS
VL: DVVMTQTPASVSEPVGGTVTIKCQASERIYSGLAWYQQKPGQPPKLLIYGASTLASGVPSRFKGSGSGTDFTLTISDLECDDAAIYYCQCTYYGSSYPNVFGGGTEVVVKR
notes: also called antibody Ab23
B4: Ab24 (antibody, human IgG1, kappa, N297A, V domains shown)
VH: B3 VH
VL: B3 VL with C90A
notes: also called antibody Ab24

Molecular target: T1, human Proprotein Convertase Subtilisin-like/Kexin type 9 (human, UniProt Q8NBP7 31-692, limits assumed)
T1 construct: Biotinylated in the ELISAs; unlabelled analyte in BLI and SPR; also called human PCSK9; PCSK9
Experiment: SPR (ProteOn XPR36), biotinylated antibody on neutravidin chip, human PCSK9 as analyte, 1:1 fit, mean of 4 densities
Experimental: Binding affinities of monoclonal antibodies for PCSK9 were estimated using Surface Plasmon Resonance (SPR) on the ProteOn XPR36 (Bio-Rad). Biotinylated antibody was immobilized at progressively increasing densities to the surface of Neutravidin (NLC) Chips. A dilution series of human PCSK9 prepared in 1×HBS-EP+Buffer (10 mM Hepes; 150 mM NaCl; 3 mM EDTA, 0.05% Polysorbate 20; pH 7.6 at 25° C.) purchased from Thermo Scientific and supplemented with 0.2 mg/mL Bovine Serum Albumin (BSA) from Jackson ImmunoResearch and 0.005% sodium azide from VWR was used to query the antibodies. At our chosen concentrations of antigen (˜0.08 μg/mL-6.7 μg/mL) association times of 4 minutes and dissociation times of 30-120 minutes were used with the ProteOn Manager Software (v3.1.0.6, Bio-Rad) to group and fit data using a 1:1 Langmuir binding model. Surfaces were regenerated between analyte queries and after binding antibody to the surface using 10 mM Glycine pH 2.0. Data across 4 different densities were averaged and a single KD and standard propagation of error calculated for each antibody.

T1 sequence (Q8NBP7 31-692 limits assumed): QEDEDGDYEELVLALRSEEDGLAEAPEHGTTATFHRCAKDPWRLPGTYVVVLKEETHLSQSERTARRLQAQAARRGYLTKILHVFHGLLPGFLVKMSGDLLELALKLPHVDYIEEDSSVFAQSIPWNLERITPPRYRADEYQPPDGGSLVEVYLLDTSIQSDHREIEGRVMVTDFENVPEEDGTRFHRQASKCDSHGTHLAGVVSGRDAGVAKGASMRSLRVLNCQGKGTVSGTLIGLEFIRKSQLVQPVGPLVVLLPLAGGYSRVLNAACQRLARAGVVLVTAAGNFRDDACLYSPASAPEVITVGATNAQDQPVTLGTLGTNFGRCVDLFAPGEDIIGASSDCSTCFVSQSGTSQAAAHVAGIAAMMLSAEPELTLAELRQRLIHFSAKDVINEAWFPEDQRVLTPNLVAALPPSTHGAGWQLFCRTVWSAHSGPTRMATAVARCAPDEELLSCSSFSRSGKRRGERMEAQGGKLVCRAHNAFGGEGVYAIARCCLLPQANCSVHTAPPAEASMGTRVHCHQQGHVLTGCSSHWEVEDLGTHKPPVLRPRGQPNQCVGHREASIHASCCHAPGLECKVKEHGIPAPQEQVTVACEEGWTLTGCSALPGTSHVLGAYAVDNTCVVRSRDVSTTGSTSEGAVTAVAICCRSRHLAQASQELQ

Binder	Kd [nM]	koff [s⁻¹]	kon [M⁻¹ s⁻¹]
B1	0.61	0.000354	580000
B2	0.49	0.000259	529000
B3	0.04	3.71e-05	928000
B4	0.09	6.16e-05	684000
